Assay results published in patent US20150098900A1 (Genentech, published 2015).

B1: 1G7.2 (antibody, IgG1, V domains shown)
VH: EVQLQESGPGLVQPSQSLSITCTVSGFSLTRFGVHWVRQSPGKGLEWLGVIWRGGSTDYNAAFMSRLTITKDNSKSQVFFKLNSLKVDDTAIYYCSNHYYGSSDYALDNWGQGTSVTVSSASTKGPSVFPLAP
VL: DIVMTQSHKIMSTSVGDRVSITCKASQDVSNIVVWFQQKPGQSPNLLIYSASYRYTGVPDRFTGSGSGTDFTFTISSVQAEDLAVYYCQQHYSSPYTFGGGTKLEIKRTVAA
notes: Parent 1G7, subclone 1G7.2 and purified 1G7.2.mIgG1 treated as one antibody; also called 1G7.2.mIgG1
B2: 3B12.1.1 (antibody, IgG2b, V domains shown)
VH: EVQLQQSGPELVKPGASVKISCKTSGYTFTEYTIHWVKQSHGKSLERIGGINPNNDAVSYNQRFRGKATLTVDKSSSTAYMELRSLTSEDSAVYYCAKLGRGYYFDYWGQGTTLTVSSASTKGPSVFPLAP
VL: DIQMTQSPASLSASVGETVTITCRASENIYSNLAWYQLKQGKSPQLLVYGAANLAEGVPSRISGSGSGTQYSLKINSLQSEDFGTYYCQHFWGIPWTFGGGTKLEIKRTVAA
notes: parent 3B12 and subclone 3B12.1 treated as the same antibody; also called 3B12.1.mIgG2b

Assays:
[1] = molecular target: T1, FcRH3 endogenously expressed on human NK cells (CD56+ cells of PBMC) (human, UniProt Q96P31 18-734); experiment: FACS, CD56+ NK cells of human PBMC, anti-mouse APC
T1 construct: whole, on cells; FcRH1 was also detected on CD56+ cells; also called endogenously expressed FcRH3
T1 sequence (looked up): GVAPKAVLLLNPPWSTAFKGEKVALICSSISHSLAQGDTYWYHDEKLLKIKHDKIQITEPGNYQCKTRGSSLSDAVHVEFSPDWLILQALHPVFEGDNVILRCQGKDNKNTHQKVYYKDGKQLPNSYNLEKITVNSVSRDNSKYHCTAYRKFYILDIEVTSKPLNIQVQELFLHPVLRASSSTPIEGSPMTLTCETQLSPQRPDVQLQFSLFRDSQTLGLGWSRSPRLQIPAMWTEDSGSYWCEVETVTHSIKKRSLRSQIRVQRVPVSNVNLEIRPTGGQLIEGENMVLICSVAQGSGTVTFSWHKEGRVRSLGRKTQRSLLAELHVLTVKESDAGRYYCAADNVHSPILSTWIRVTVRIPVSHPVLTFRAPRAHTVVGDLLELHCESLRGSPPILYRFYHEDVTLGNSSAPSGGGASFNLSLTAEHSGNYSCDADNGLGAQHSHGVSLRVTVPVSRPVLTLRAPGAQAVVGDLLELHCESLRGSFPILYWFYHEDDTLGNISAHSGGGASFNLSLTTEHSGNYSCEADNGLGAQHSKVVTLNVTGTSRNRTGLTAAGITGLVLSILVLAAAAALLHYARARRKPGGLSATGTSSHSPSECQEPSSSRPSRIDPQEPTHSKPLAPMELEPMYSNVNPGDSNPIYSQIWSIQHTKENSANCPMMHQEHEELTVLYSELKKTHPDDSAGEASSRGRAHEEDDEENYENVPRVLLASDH
Protocol: To test binding to endogenously FcRH5 expressing cancer cells or FcRH5 transfected cancer cells, cells were lifted using EDTA/PBS. 1×10⁵ cells were suspended in 100 ul and incubated […] with primary antibodies (1 volume of non-IgG quantitated subclone supernatant, 4 ug/ml IgG quantified subclone supernatant or […] purified monoclonal antibodies). Cells were washed twice with FACS buffer (PBS 1% BSA 2 mM EDTA) and incubated with 1:1000 dilution of goat anti-mouse secondary labeled with PE or 1:100 of goat anti-mouse APC. Cells were washed twice with FACS buffer and Flow cytometry analysis was done on a FACSCalibur. Direct […] of antibodies was done according to manufacturer's protocol (Invitrogen), when indicated. To analyze binding to NK or B cells, 1 million human PBMC were incubated with 4 ug/ml IgG quantified subclone supernatants for 60 min, washed and incubated with 1:100 dilution of goat anti-mouse secondary labeled with APC. Cells were then washed again twice and stained using anti-CD56 (PE; BD Biosciences #555516) and anti-CD19 (PE; BD Biosciences #340364) prior flow cytometry and analysis of binding to human CD56+ and CD19+ cells.
Since the overall signal in the FcRH3-expressing SVT2 cells was low, further testing was done using PBMCs from healthy donors. […]

[2] = molecular target: T2, human FcRH5c (full length human FcRH5) (human, UniProt Q96RD9 16-977); experiment: FACS, APC-labelled antibodies on SVT2 cells with full-length human FcRH5
T2 construct: Used on transfected SVT2, 293, EJM and OPM2 cells and endogenously on MOLP-2 cells and CD19+ B cells; also called IRTA2c; huFcRH5
T2 sequence: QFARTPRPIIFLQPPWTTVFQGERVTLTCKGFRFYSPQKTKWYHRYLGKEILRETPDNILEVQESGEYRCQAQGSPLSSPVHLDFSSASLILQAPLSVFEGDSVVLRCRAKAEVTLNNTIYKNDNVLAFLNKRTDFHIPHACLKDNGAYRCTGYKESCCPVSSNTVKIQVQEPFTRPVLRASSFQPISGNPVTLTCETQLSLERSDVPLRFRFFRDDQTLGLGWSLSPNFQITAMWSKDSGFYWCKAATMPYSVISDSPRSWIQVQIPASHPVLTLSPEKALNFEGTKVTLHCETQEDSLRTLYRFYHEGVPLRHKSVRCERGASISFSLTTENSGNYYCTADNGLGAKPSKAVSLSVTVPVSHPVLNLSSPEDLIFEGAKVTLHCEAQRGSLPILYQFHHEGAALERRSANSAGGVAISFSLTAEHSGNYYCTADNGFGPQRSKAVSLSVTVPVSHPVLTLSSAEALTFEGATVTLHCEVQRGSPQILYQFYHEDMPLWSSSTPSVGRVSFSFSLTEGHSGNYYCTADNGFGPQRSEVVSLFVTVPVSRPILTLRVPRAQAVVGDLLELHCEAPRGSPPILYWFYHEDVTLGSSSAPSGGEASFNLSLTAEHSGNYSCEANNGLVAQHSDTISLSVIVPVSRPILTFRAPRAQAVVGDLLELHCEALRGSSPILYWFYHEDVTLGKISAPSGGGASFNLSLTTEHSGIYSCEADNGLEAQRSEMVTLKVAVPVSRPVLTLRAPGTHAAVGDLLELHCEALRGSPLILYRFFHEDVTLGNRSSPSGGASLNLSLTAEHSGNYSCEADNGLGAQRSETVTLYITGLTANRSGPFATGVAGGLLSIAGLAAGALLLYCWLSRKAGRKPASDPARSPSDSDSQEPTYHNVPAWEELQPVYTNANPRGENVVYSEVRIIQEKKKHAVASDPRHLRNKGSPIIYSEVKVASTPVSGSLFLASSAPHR

[3] = molecular target: T3, soluble FcRH5a isoform with C-terminal HIS-expression tag (human, UniProt Q96RD9-3 16-759); experiment: ELISA, His-tagged soluble FcRH5a captured by anti-His, anti-mouse HRP, OD 650
T3 construct: mature; also called IRTA2a
T3 sequence (looked up): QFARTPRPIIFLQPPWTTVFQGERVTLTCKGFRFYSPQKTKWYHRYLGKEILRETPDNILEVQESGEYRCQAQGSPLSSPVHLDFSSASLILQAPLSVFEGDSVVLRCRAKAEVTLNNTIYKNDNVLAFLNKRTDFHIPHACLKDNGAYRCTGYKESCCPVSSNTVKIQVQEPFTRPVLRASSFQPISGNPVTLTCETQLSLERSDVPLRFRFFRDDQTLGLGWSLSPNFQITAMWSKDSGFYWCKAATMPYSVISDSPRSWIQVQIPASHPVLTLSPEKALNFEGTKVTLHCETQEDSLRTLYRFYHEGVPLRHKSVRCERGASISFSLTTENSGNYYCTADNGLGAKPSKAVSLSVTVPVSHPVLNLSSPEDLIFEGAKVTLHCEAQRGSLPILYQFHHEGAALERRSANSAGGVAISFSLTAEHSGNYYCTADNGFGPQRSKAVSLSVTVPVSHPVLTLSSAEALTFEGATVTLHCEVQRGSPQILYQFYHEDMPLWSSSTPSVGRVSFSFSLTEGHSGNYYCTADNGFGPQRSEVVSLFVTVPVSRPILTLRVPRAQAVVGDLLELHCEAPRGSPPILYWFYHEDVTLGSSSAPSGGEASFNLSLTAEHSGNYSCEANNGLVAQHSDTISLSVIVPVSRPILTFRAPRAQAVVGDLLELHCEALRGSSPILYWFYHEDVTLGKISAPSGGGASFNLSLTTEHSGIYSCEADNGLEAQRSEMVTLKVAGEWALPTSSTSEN
Protocol: For this, 293 cells were transfected to express the soluble isoform with C-terminal HIS-expression tag. Expression of FcRH5a protein was confirmed with Western blot analysis using anti-HIS antibody. A 65 kD band was detected in conditioned media from FcRH5a but not vector transfected cells (not shown). For the ELISA, plates were coated with anti-HIS capture antibody and incubated 1 hour with 1:10 diluted conditioned media including the HIS-tagged soluble FcRH5a isoform. The E11 monoclonal antibodies were used for detection in 1-0.001 ug/ml concentration, incubated for 1 hour followed by incubation with goat anti-mouse HRP antibody and finally with TMB-substrate.

[4] = molecular target: T4, human FcRH2 with N-terminal gD-expression tag on SVT2 cells (human, UniProt Q96LA5 20-508); experiment: FACS, SVT2 cells with gD-tagged FcRH2, subclone supernatants, anti-mouse PE
T4 construct: whole, on cells; also called SVT2/FcRH2
T4 sequence (looked up): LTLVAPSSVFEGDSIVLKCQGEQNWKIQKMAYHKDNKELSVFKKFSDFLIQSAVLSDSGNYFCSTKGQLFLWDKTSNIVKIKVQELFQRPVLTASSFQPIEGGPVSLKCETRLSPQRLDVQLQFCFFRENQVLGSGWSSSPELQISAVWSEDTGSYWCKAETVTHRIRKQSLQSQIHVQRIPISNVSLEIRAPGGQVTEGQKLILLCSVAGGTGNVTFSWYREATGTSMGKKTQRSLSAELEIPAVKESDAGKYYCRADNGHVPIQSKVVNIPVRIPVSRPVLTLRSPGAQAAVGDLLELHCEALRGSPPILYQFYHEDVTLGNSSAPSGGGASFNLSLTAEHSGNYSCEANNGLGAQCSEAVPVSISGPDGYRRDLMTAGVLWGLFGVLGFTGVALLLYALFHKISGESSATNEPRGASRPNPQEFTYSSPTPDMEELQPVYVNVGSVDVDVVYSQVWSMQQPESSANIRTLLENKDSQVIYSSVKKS
Text: Fc receptor homolog (FcRH) family molecules have a high degree of homology to one another (Miller et al., 2002). The homology is especially high between the membrane proximal domains, which the E11 antibodies target (Miller et al., 2002). To investigate the cross reactivity to family members, FcRH1, FcRH2, FcRH3 and FcRH4 (all including an N-terminal gD-expression tag) were expressed in SVT2 cells and cells were stained with subclone supernatants and goat anti-mouse-PE secondary antibody. Expression of the transfected FcRH was confirmed by a signal from anti-gD antibody in all cell lines. […] Overall, the signals from FcRH3-expressing SVT2 cells were low, including the gD control antibody, indicative of low expression level. Low level of binding to FcRH3-expressing SVT2 cells was detected for 1F4 and 4H8 supernatants (FIG. 6C).

| Binder | binding result [1] | binding result [2] | binding result [3] | binding result [4] |
| --- | --- | --- | --- | --- |
| B1 | no binding (tested: 4 ug/ml) | binds | no binding |  |
| B2 |  | binds |  | no binding |
